# Assay results reported in US20260166140A1, “Combinations Involving Epidermal Growth Factor Receptor Tyrosine Kinase Inhibitors For the Treatment of Cancer” (AstraZeneca AB, priority 2022, published 2026).
# Positions count from the first letter of the chain named.
# T1: HER4 (UniProt Q15303 26-649, limits assumed)
# T1 construct: also called EGFR HER family protein HER4
# T1 sequence (looked up): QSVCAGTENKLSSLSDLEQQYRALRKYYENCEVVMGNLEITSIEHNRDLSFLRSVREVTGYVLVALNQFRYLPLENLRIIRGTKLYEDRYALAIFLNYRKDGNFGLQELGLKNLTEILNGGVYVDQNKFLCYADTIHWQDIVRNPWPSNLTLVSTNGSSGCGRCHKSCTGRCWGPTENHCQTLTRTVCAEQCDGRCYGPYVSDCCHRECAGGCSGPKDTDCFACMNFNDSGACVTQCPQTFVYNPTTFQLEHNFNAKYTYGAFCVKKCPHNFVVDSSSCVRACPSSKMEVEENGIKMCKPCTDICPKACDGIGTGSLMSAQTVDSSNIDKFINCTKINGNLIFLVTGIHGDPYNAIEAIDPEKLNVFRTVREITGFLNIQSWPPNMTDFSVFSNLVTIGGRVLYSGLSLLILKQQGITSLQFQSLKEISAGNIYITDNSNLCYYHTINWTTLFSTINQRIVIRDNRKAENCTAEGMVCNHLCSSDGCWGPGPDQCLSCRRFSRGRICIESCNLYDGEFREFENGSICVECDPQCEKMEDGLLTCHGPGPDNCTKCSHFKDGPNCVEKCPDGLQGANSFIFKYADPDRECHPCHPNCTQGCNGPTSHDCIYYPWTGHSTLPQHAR
# B1: RAA22/B09-57 DuetMab (bispecific antibody, human IgG1, kappa, lambda)
# heavy 1: QVQLVQSGAEVKKPGSSVKVSCKASGGTFSDNDFSWVRQAPGQGLEWMGAIVAVFRTETYAQKFQDRVKITADISTRTTYMELSSLRSEDTAVYYCARRLMSAISGPGAPLLMWGQGTLVTVSSASTKGPSVFPLAPSSKSTSGGTAALGCLVKDYFPEPVTVSWNSGALTSGVHTFPAVLQSSGLYSLSSVVTVPSSSLGTQTYICNVNHKPSNTKVDKRVEPKSCDKTHTCPPCPAPELLGGPSCVFLFPPKPKDTLMISRTPEVTCVVVDVSHEDPEVKFNWYVDGVEVHNAKTKPREEQYNSTYRVVSVLTVLHQDWLNGKEYKCKVSNKALPAPIEKTISKAKGQPREPQVCTLPPSREEMTKNQVSLSCAVKGFYPSDIAVEWESNGQPENNYKTTPPVLDSDGSFFLVSKLTVDKSRWQQGNVFSCSVMHEALHNHYTQKSLSLSPGK
# heavy 2: QVQLVQSGAEVKKPGASVKVSCKASGYTFTDYYIHWVRQATGQGLEWMGWMNPNSGNTGYAQKFQGRVTMTRDTSISTAYMELSSLRSEDTAVYYCARGQGYTHSWGQGTMVTVSSASTKGPSVCPLAPSSKSTSGGTAALGCLVKDYFPEPVTVSWNSGALTSGVHTFPAVLQSSGLYSLSSVVTVPSSSLGTQTYICNVNHKPSNTKVDKRVEPKSVDKTHTCPPCPAPELLGGPSCVFLFPPKPKDTLMISRTPEVTCVVVDVSHEDPEVKFNWYVDGVEVHNAKTKPREEQYNSTYRVVSVLTVLHQDWLNGKEYKCKVSNKALPAPIEKTISKAKGQPREPQVYTLPPCREEMTKNQVSLWCLVKGFYPSDIAVEWESNGQPENNYKTTPPVLDSDGSFFLYSKLTVDKSRWQQGNVFSCSVMHEALHNHYTQKSLSLSPG
# light 1: QSALTQPRSVSGSPGQSVTISCTGTSSDVGGYNYVSWYQQHPGKAPKLMIYDVSKRPSGVPDRFSGSKSGNTASLTISGLQAEDEADYYCSSYTSSDTLEIFGGGTKLTVLGQPKAAPSVTLFPPSSEELQANKATLVCLISDFYPGAVTVAWKADSSPVKAGVETTTPSKQSNNKYAASSYLSLTPEQWKSHRSYSCQVTHEGSTVEKTVAPTECS
# light 2: DIQMTQSPSTLSASVGDRVTITCRASEGIYHWLAWYQQKPGKAPKLLIYKASSLASGVPSRFSGSGSGTEFTLTISSLQPDDFATYYCQQYSNYPPTFGGGTKLEIKRTVAAPSVFIFPPCDEQLKSGTASVVCLLNNFYPREAKVQWKVDNALQSGNSQESVTEQDSKDSTYSLSSTLTLSKADYEKHKVYACEVTHQGLSSPVTKSFNRGEV
# notes: also called monovalent bispecific EGFR/cMET DuetMAb RAA22/B09; RAA22/B09-Maia
# B2: QD6/B09-57 DuetMab (bispecific antibody, human IgG1, kappa, lambda)
# heavy 1: B1 heavy 1 with F55V
# heavy 2: B1 heavy 2
# light 1: B1 light 1 with K55E, S91F
# light 2: B1 light 2
# notes: also called monovalent bispecific EGFR/cMET DuetMAb QD6/B09
# How the values were obtained:
# [1] = test system: Cynomolgus monkey EGFR; test: SPR (BIAcore T200) antibody capture kinetics; assay type: binding; details: 25° C.
# Experimental: (§1) Mouse anti-human IgG was immobilized on a CM4 sensor chip with a final surface density of ˜2000 resonance units (RUs). A reference flow cell surface was also prepared on this sensor chip using identical immobilization protocol. Test and control article antibodies were prepared at 5-20 nM in instrument buffer (HBS-EP buffer; 0.01M HEPES, pH 7.4, 0.15M NaCl, 3 mM EDTA, and 0.005% P-20), along with 3-fold serial dilutions of purified EGFR (0.27-200 nM human, 0.4-900 nM cyno, and 4-1000 nM murine) or cMET proteins (0.27 to 66 nM human and 0.27-22 nM cyno) in instrument buffer. A sequential approach was utilized for kinetic measurements. Antibodies were first injected over the capture surface, at a flow rate of 10 μL/minute. Once the binding of the captured antibody stabilized, a single concentration of the analyte was injected over both capture and reference surfaces, at a flow rate of 75 μL/minute. The resulting binding response curves yielded the association phase data. Following the injection of analyte, the flow was then switched back to instrument buffer for 15 minutes to permit the collection of dissociation phase data, followed by a 1-minute pulse of 10 mM glycine, pH 1.5, to regenerate the antibody-captured surface on the chip. Binding responses against test and control article antibodies were recorded from duplicate injections of each concentration of analyte. In addition, several buffer injections were interspersed throughout the injection series. Select buffer injections were used along with the reference cell responses to correct the raw data sets for injection artifacts and/or nonspecific binding interactions, commonly referred to as “double referencing”. Corrected binding data were globally fit to a 1:1 binding model (Biacore T200 Evaluation software 2.0, GE Healthcare, Pittsburgh, PA).
# [2] = test system: Cynomolgus monkey cMET; test: SPR (BIAcore T200) antibody capture kinetics; assay type: binding; details: 25° C.
# Sequence of Cynomolgus monkey cMET (as listed by the source): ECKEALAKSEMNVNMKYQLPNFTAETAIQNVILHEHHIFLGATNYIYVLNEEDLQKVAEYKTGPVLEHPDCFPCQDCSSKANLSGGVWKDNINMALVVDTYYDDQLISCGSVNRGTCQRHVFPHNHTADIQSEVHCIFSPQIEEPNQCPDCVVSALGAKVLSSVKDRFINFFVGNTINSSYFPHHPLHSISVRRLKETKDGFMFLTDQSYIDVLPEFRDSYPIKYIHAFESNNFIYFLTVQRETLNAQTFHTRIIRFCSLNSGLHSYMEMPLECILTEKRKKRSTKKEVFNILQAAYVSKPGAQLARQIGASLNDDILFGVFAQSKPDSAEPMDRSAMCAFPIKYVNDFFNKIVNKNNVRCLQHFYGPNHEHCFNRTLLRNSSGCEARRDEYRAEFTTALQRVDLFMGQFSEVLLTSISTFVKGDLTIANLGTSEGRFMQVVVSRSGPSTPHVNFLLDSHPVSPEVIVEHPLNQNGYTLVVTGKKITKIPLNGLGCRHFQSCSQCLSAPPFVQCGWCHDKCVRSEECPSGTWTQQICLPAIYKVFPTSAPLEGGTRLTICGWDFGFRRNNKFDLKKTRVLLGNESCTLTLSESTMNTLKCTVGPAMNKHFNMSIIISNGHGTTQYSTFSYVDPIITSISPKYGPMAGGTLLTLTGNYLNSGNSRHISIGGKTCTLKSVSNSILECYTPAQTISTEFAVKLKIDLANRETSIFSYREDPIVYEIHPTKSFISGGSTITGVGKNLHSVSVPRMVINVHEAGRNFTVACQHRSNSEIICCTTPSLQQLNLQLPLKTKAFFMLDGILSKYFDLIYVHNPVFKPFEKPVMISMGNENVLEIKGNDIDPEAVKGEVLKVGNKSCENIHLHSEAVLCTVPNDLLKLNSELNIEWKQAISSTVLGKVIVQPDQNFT
# Experimental: as §1
# [3] = molecular target: Human EGFR (Homo sapiens, UniProt P00533); test: SPR (BIAcore T200) antibody capture kinetics; assay type: binding; details: for Koff / Kon: 25° C.; for Kon: 1:1 binding model
# Experimental: as §1
# [4] = molecular target: Human cMET (Homo sapiens, UniProt P08581); test: SPR (BIAcore T200) antibody capture kinetics; assay type: binding; details: for Koff / Kon: 25° C.
# Sequence of Human cMET (P08581 25-932): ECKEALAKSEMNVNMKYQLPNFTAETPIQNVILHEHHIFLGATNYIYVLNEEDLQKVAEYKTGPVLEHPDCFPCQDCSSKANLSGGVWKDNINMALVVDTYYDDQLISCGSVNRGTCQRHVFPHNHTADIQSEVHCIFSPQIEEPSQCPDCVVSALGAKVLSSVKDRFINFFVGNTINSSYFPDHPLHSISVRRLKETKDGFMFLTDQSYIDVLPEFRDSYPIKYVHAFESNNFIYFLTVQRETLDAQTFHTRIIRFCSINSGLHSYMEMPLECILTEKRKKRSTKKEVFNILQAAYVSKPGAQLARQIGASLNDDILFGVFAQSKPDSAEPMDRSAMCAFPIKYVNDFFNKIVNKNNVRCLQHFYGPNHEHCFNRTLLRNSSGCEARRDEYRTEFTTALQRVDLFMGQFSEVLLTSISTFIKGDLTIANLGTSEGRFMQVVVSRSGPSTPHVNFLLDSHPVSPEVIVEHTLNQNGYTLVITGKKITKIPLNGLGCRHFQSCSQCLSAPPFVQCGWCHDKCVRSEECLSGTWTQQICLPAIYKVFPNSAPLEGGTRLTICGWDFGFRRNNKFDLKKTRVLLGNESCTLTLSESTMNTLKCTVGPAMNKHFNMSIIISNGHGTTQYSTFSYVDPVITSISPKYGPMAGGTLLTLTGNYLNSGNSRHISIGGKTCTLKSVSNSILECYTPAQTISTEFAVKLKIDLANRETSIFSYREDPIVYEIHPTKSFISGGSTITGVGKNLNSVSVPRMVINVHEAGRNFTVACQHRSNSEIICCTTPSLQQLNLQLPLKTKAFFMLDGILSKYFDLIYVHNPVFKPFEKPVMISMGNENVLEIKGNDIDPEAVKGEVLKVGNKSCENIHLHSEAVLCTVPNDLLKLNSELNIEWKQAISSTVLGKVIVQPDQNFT
# Experimental: as §1
# [5] = molecular target: T2, Mouse EGFR (Mus musculus, UniProt Q01279); test: SPR (BIAcore T200) antibody capture kinetics; assay type: binding; details: for Koff / Kon: 25° C.
# T2 construct: purchased SinoBiological 51091-M08H
# Experimental: as §1
# [6] = molecular target: T3, Cynomolgus monkey cMET (recombinant, soluble monomeric) (cynomolgus monkey, UniProt A0M8R7 25-932 (Papio anubis entry)); test: SPR, Biacore T200, antibody captured on anti-human IgG, soluble monomeric antigen as analyte, 25 C
# T3 construct: also called cyno cMET
# T3 sequence (A0M8R7 25-932 S170N/I621T): as the sequence (as listed by the source) above
# [7] = molecular target: T4, Human EGFR (recombinant, soluble monomeric) (human, UniProt P00533 25-645); test: as above
# T4 construct: also called EGFR antigen
# [8] = molecular target: T5, Cynomolgus monkey EGFR (recombinant, soluble monomeric) (cynomolgus monkey, UniProt P55245 25-645 (rhesus entry)); test: as above
# T5 construct: also called cyno EGFR
# [9] = molecular target: T6, Mouse EGFR (recombinant, soluble monomeric) (mouse, UniProt Q01279 25-647); test: as above
# T6 construct: also called murine EGFR
# [10] = molecular target: T7, Human cMET (recombinant, soluble monomeric) (human, UniProt P08581 25-932); test: as above
# T7 construct: in the HTRF assay it is called the human cMET receptor; also called His-tagged cMET antigen
# T7 sequence (P08581 25-932): as the sequence (P08581 25-932) above
# [11] = molecular target: Mouse cMET (recombinant) (mouse, UniProt P16056 25-929, limits assumed); test: ELISA: antigen coated at 1 ug/mL, antibody dilution series, goat anti-human Fab-HRP, A450; panel Mouse cMET
# Sequence of Mouse cMET (recombinant) (P16056 25-929 limits assumed): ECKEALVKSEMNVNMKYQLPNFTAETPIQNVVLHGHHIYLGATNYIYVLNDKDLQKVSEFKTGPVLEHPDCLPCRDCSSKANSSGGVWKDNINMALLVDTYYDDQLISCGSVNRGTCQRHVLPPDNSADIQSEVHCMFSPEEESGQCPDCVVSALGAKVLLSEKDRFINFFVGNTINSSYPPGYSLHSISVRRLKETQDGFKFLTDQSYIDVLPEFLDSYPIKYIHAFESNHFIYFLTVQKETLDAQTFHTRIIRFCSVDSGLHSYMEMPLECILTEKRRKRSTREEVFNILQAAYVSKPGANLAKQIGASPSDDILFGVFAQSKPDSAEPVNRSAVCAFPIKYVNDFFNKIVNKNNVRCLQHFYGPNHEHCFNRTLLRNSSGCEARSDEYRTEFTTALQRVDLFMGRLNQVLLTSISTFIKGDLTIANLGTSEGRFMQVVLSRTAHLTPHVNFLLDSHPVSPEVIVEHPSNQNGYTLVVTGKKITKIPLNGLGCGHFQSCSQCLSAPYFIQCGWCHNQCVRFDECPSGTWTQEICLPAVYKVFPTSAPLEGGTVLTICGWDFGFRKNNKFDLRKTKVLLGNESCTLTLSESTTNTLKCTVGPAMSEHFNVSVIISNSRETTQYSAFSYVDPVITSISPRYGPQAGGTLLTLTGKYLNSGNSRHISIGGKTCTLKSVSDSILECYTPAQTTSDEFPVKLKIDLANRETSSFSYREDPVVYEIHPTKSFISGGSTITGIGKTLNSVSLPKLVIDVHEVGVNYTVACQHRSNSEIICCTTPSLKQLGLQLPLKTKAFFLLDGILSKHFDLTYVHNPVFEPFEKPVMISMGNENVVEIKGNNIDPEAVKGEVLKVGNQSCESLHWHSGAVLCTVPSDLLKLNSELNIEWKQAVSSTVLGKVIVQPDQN
# [12] = molecular target: T8, HER3 (UniProt P21860 20-643, limits assumed); test: ELISA: antigen coated at 1 ug/mL, antibody dilution series, goat anti-human Fab-HRP, A450; panel Human HER3
# T8 construct: also called EGFR HER family protein HER3
# [13] = molecular target: T1, HER4; test: ELISA: antigen coated at 1 ug/mL, antibody dilution series, goat anti-human Fab-HRP, A450; panel Human HER4
molecule,measurement,setting,value
B1,Koff,[1],0.00548 s⁻¹
same,Kon,[1],27800 M⁻¹ s⁻¹
same,Koff,[2],0.00212 s⁻¹
same,Kon,[2],974000 M⁻¹ s⁻¹
same,Koff,[3],0.00201 s⁻¹
same,Kon,[3],44700 M⁻¹ s⁻¹
same,Koff,[4],0.000986 s⁻¹
same,Kon,[4],443000 M⁻¹ s⁻¹
same,Kd,[4]; koff/kon,~2 nM
same,Koff,[5],0.0206 s⁻¹
same,Kon,[5],35400 M⁻¹ s⁻¹
same,Kd,[6],2.2 nM
same,koff,[6],0.00212 s⁻¹
same,kon,[6],974000 M⁻¹ s⁻¹
same,Kd,[7],45 nM
same,koff,[7],0.00201 s⁻¹
same,kon,[7],44700 M⁻¹ s⁻¹
same,Kd,[8],197 nM
same,koff,[8],0.00548 s⁻¹
same,kon,[8],27800 M⁻¹ s⁻¹
same,Kd,[9],575 nM
same,koff,[9],0.0206 s⁻¹
same,kon,[9],35400 M⁻¹ s⁻¹
same,Kd,[10],2.2 nM
same,koff,[10],0.000986 s⁻¹
same,kon,[10],443000 M⁻¹ s⁻¹
same,binding result,[11],no binding (tested: 10 ug/ml)
same,binding result,[12],no binding (tested: 10 ug/ml)
same,binding result,[13],no binding (tested: 10 ug/ml)
B2,Koff,[1],0.000585 s⁻¹
same,Kon,[1],210000 M⁻¹ s⁻¹
same,Koff,[2],0.00206 s⁻¹
same,Kon,[2],958000 M⁻¹ s⁻¹
same,Koff,[3],0.000374 s⁻¹
same,Kon,[3],63500 M⁻¹ s⁻¹
same,Kd,[3]; KD calculated as koff/kon,~6 nM
same,Koff,[4],0.000696 s⁻¹
same,Kon,[4],425000 M⁻¹ s⁻¹
same,Koff,[5],0.00078 s⁻¹
same,Kon,[5],126000 M⁻¹ s⁻¹
same,Kd,[5]; koff/kon,~6 nM
same,Kd,[6],2.2 nM
same,koff,[6],0.00206 s⁻¹
same,kon,[6],958000 M⁻¹ s⁻¹
same,Kd,[7],5.9 nM
same,koff,[7],0.000374 s⁻¹
same,kon,[7],63500 M⁻¹ s⁻¹
same,Kd,[8],2.8 nM
same,koff,[8],0.000585 s⁻¹
same,kon,[8],210000 M⁻¹ s⁻¹
same,Kd,[9],6.2 nM
same,koff,[9],0.00078 s⁻¹
same,kon,[9],126000 M⁻¹ s⁻¹
same,Kd,[10],1.6 nM
same,koff,[10],0.000696 s⁻¹
same,kon,[10],425000 M⁻¹ s⁻¹
same,binding result,[11],no binding (tested: 10 ug/ml)
same,binding result,[12],no binding (tested: 10 ug/ml)
same,binding result,[13],no binding (tested: 10 ug/ml)
